Data on 4 molecules can be found in US20260070974A1 (NONA BIOSCIENCES SUZHOU, published 2026).

“And” between values parts separate entries of the source, which are not always exact repeats. Equal entries are not always repeated.

Assay [1] deals with T1, cynomolgus monkey Siglec-15 on CHO-K1/cynomolgus monkey Siglec-15 cells (cynomolgus monkey, UniProt Q6ZMC9 20-328 (human entry)).
T1 chain: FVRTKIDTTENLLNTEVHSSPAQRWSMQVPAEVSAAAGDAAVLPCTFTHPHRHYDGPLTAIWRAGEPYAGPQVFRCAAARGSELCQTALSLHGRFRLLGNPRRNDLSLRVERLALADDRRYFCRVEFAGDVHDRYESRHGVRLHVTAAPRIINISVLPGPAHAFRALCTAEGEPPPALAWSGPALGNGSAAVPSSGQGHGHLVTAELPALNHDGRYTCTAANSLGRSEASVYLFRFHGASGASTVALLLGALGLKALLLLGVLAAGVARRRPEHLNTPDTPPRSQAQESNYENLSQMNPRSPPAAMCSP
Nature of the assay: flow cytometry on CHO-K1/cynomolgus monkey Siglec-15 cells. The procedure:
cDNAs encoding cynomolgus monkey Siglec-15 (the amino acid sequence of which is set forth in SEQ ID NO: 155) were obtained by gene synthesis and cloned into the expression vector pcDNA3.1, and then the expression vector was transfected into CHO-K1 cells to construct CHO-K1/cynomolgus monkey Siglec-15 cells expressing cynomolgus monkey Siglec-15. CHO-K1/cynomolgus monkey Siglec-15 cells were adjusted to a density of 1×10⁶/mL with PBS, and the cell suspension was added to a 96-well V-bottom plate at 100 µL/well. The 96-well V-bottom plate was centrifuged at 1000 rpm for 5 min and washed once with PBS+2% FBS. The cells were resuspended in 100 μL of antibody diluted in a gradient (5-fold dilution, starting concentration: 500 nM) and incubated at 4° C. for 1 h, and PR300066 and hIgG1 were used as positive control and negative control, respectively. After 1 h, the cells were washed twice with PBS+2% FBS. The cells were incubated with 100 μL of Alexa Fluor 488 goat anti-human IgG (Jackson, Cat #: 109-545-098) at 4° C. for 1 h in the dark and then washed twice with PBS+2% FBS. The cells were then resuspended in 200 μL of PBS+2% FBS. The fluorescence intensity of the cells was analyzed using a BD FACS Canto™ II flow cytometer.
Background: A flow cytometer gives signals particle by particle.

Assay [2] addresses T2, human Siglec-15 on CHO-K1/human Siglec-15 cells (KYinno, Beijing) (human, UniProt Q6ZMC9 20-328).
T2 sequence: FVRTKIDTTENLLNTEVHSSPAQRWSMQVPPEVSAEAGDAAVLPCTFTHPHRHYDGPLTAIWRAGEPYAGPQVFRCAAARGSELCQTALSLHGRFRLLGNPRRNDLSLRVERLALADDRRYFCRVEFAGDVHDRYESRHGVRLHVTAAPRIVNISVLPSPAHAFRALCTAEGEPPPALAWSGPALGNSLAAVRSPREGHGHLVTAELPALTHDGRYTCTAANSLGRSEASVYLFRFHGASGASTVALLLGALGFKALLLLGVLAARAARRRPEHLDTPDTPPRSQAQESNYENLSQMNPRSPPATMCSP
Nature of the assay: flow cytometry on CHO-K1/human Siglec-15 cells. As for the experimental part: CHO-K1/human Siglec-15 cells (KYinno, Beijing) were adjusted to a density of 1×10⁶/mL with PBS, and the cell suspension was added to a 96-well V-bottom plate at 100 μL/well. The 96-well V-bottom plate was centrifuged at 1000 rpm for 5 min and washed once with PBS+2% FBS. The cells were resuspended in […] of antibody diluted in a gradient (5-fold dilution, starting concentration: 500 nM) and incubated at 4° C. for 1 h, and PR300066 and hIgG1 were used as positive control and negative control, respectively. After 1 h, the cells were washed twice with PBS+2% FBS. The cells were incubated with 100 μL of Alexa Fluor 488 goat anti-human IgG (Jackson, Cat #: 109-545-098) at 4° C. for 1 h in the dark and then washed twice with PBS+2% FBS. The cells were then resuspended in 200 μL of PBS+2% FBS. The fluorescence intensity of the cells was analyzed using a BD FACSCanto™ II flow cytometer.

Assay [3] concerns the target T3, human Siglec-3-his protein (Acrobiosystems, Cat CD3-H5226) (human, UniProt P20138 18-259).
T3 construct: Bought protein; not shown: his tag
Kind of assay: ELISA on coated human Siglec-3-his, antibody at 100 nM and 10 nM, goat anti-human IgG-HRP, OD450. As for the experimental part: Human Siglec-15 ECD-his protein (Acrobiosystems, Cat SG5-H52H3), human Siglec-2-his protein (Acrobiosystems, Cat CD2-H52H8), human Siglec-4a-his protein (Acrobiosystems, Cat MAG-H52H8), human Siglec-3-his protein (Acrobiosystems, Cat CD3-H5226), human Siglec-10-his protein (Acrobiosystems, Cat SIO-H52H9), and human PD-L1/B7-H1-his protein (Acrobiosystems, Cat PD1-H5229), each at 1 μg/mL and dissolved in PBS, were each added to an ELISA plate at 100 μL/well for coating and the plate was incubated overnight at 4° C. The ELISA plate was then blocked with PBST (PBS+0.05% Tween 20) containing 2% BSA at 200 μL/well and incubated at 37° C. for 1 h. The ELISA plate was washed 4 times with PBST. The anti-Siglec-15 antibody diluted in a gradient (concentrations: 100 nM and 10 nM) was added to the ELISA plate at 100 μL/well and the plate was incubated at 37° C. for 1 h. The ELISA plate was washed 4 times with PBST. The goat anti-human IgG (H+L)-HRP (1:5000, Jackson, Cat 109-035-088) was added at 100 μL/well and the plate was incubated at 37° C. for 1 h. The ELISA plate was washed 4 times with PBST. The TMB substrate (Biopanda, Cat TMB-S-003) was added at 100 μL/well, and the plate was incubated at room temperature for 5 min, and then the stop buffer (Solarbio, Cat #: C1058) was added at 100 μL/well to stop the reaction.

T3 sequence (P20138 18-259 limits assumed): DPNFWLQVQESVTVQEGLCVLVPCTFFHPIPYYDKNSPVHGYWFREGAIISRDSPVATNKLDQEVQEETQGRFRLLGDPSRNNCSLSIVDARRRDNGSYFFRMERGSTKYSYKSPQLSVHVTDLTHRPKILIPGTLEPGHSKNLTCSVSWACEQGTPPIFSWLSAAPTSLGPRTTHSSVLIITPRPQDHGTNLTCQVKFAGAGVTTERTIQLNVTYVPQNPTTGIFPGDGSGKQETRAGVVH

B1: PR301289 (antibody, human IgG1, kappa, V domains shown)
VH: QVQLVQSGAEVKKPGASVKVSCRASGYTFTSYDINWVRQATGQGLEWMGWMNPHSGDTGYAQNFQGRVTMTWNTSISTAYMELSSLRSEDTAVYYCARRRVGVYYYGMDVWGQGTTVTVSS
VL: ENVLTQSPGTLSLSPGERATLSCRASQSVSSSYFGWYQQKPGQAPRLLIYGASSRATGIPDRFSGSGSGTDFTLTISRLEPEDFAVYYCQQYGSSPITFGQGTRLEIKR
notes: Parent of the PTM variants PR301289-1 and -2
In general, EC50 refers to the concentration needed to bring the measured effect to its halfway point. For B1, in assay [1], the half-maximal effective concentration (EC50) was 1.36 nM and the “Maximum (MFI)” value came to 5420 MFI. In assay [2], the EC50 turned out to be 1.04 nM and the “Maximum (MFI)” value came to 29200 MFI. Besides, the binding result in assay [3] is “no binding (tested: 100 nM)”.

B2: PR301286 (antibody, human IgG1, kappa, V domains shown)
VH: QVQLVESGGGVVQPGKSLRLSCAASGFTFSSYGMHWVRQAPGKGLEWVAVIWIDGSNRYYAASVKGRFTISRDNSKNTLYLQMNSLRAEDTAVYYCTRGYGDYAYVMDVWGQGASVTVSS
VL: DIVMTQSPLSLPVTPGEPASISCRSSQSLLPGNGYNYLDWYLQKPGQSPQLLIYLGSNRASGVPDRFSGSGSGTDFTLKISRVEAEDVGIYYCMQALQSPLTFGGGTKVEIKR
notes: Parent of the PTM variants PR301286-1, -3, -5, -6, -7
On to B2, for which the EC50 in assay [1] amounted to 3.39 nM; in assay [2], 1.98 nM. Moreover, the entries for the “Maximum (MFI)” value in assay [1] and in assay [2] were 5860 MFI and 24200 MFI, respectively. The binding result in assay [3] is reported as “no binding (tested: 100 nM)”.

B3: PR300066 (Tab) (antibody, human IgG1, kappa, V domains shown)
VH: QVQLQQPGAELVKPGASVKMSCKASGYTFTSYWITWVIQRPGQGLEWIGDIYCGSDTMHYNEKFKNKATLTVDTSSSTAYMQLSSLTSEDSAVYYCARWWDYGSSYDYFDYWGQGTTLTVSS
VL: DIKMTQSPSSMYASLGERVTITCKASQDINSYLSWFQQKPGKSPKTLIYRANRLVDGVPSRFSGSGSGQDYSLTISSLEYEDMGIYYCLQYDEFPYTFGGGTKLEIKR
notes: variable region from clone 5G12 of WO 2018/057735A1, on human IgG1/kappa constant regions; also called 5G12
In the case of B3, the EC50 in assay [1] is 1.5 nM and 2.19 nM; in assay [2], 3.66 nM and 2.2 nM and 1.64 nM. Also, the binding result in assay [3] was “no binding (tested: 100 nM)”.

B4: PR301285 (antibody, human IgG1, kappa, V domains shown)
VH: QVQLQESGPGLVKPSETLSLTCTVSGGSMISYYWSWLRQPPGKGLEWIGYIYYSGNTNYNPSLKSRITIAVDTSKNQFSLKLNSVTAADTAVYYCARERELHPYYFDYWGQGTLVTVSS
VL: DIQLTQSPSFLSASVGDRVTITCRASQGIDNYLAWYQQKPGKAPKVLIYAASTLQSGVPSRFSGSGSGTEFTLTISSLQPEDFATYYCQQLNSYPLTFGGGTKVEIKR
As to B4, in assay [1], the EC50 came to 0.889 nM and the “Maximum (MFI)” value stood at 5660 MFI. Besides, in assay [2], the 50% effective concentration (EC50) was determined as 0.553 nM and the “Maximum (MFI)” value is 20300 MFI. In assay [3], the binding result was “no binding (tested: 100 nM)”.
